Measured values taken from patent publication US20110150875A1.

Legend:
[1] = biological target: PCSK9-FLAG (Pan troglodytes (Chimpanzee); Homo sapiens (Human)) (UniProt A8T644); test: AlphaScreen, His-tagged matrilin-2 at log [Matrilin] uM -2.340283 with PCSK9-FLAG; triplicate, SD 469
[2] = biological target: PCSK9-FLAG (Pan troglodytes (Chimpanzee); Homo sapiens (Human)) (UniProt A8T644); test: AlphaScreen, His-tagged matrilin-2 at log [Matrilin] uM -2.817405 with PCSK9-FLAG; triplicate, SD 412
[3] = biological target: PCSK9-FLAG (Pan troglodytes (Chimpanzee); Homo sapiens (Human)) (UniProt A8T644); test: AlphaScreen, His-tagged matrilin-2 at log [Matrilin] uM -3.294526 with PCSK9-FLAG; triplicate, SD 495
[4] = biological target: PCSK9-FLAG (Pan troglodytes (Chimpanzee); Homo sapiens (Human)) (UniProt A8T644); test: AlphaScreen, His-tagged matrilin-2 at log [Matrilin] uM -3.771647 with PCSK9-FLAG; triplicate, SD 220
[5] = biological target: PCSK9-FLAG (Pan troglodytes (Chimpanzee); Homo sapiens (Human)) (UniProt A8T644); test: AlphaScreen, His-tagged matrilin-2 at log [Matrilin] uM -1.386041 with PCSK9-FLAG; triplicate, SD 1634
[6] = biological target: PCSK9-FLAG (Pan troglodytes (Chimpanzee); Homo sapiens (Human)) (UniProt A8T644); test: AlphaScreen, His-tagged matrilin-2 at log [Matrilin] uM -1.863162 with PCSK9-FLAG; triplicate, SD 1131
[7] = biological target: PCSK9-FLAG (Pan troglodytes (Chimpanzee); Homo sapiens (Human)) (UniProt A8T644); test: AlphaScreen, His-tagged matrilin-2 at log [Matrilin] uM -0.4317983 with PCSK9-FLAG; triplicate, SD 2548
[8] = biological target: PCSK9-FLAG (Pan troglodytes (Chimpanzee); Homo sapiens (Human)) (UniProt A8T644); test: AlphaScreen, His-tagged matrilin-2 at log [Matrilin] uM -0.9089195 with PCSK9-FLAG; triplicate, SD 3028
[9] = biological target: PCSK9-FLAG (Pan troglodytes (Chimpanzee); Homo sapiens (Human)) (UniProt A8T644); test: AlphaScreen competition, matrilin-2 at 11 nM; inhibition of PCSK9-Flag binding to His-tagged LDL receptor (competitor LDLR), relative to maximum signal without matrilin-2
[10] = biological target: PCSK9-FLAG (Pan troglodytes (Chimpanzee); Homo sapiens (Human)) (UniProt A8T644); test: AlphaScreen competition, matrilin-2 at 34 nM; inhibition of PCSK9-Flag binding to His-tagged LDL receptor (competitor LDLR), relative to maximum signal without matrilin-2
[11] = biological target: PCSK9-FLAG (Pan troglodytes (Chimpanzee); Homo sapiens (Human)) (UniProt A8T644); test: AlphaScreen competition, matrilin-2 at 1.3 nM; inhibition of PCSK9-Flag binding to His-tagged LDL receptor (competitor LDLR), relative to maximum signal without matrilin-2
[12] = biological target: PCSK9-FLAG (Pan troglodytes (Chimpanzee); Homo sapiens (Human)) (UniProt A8T644); test: AlphaScreen competition, matrilin-2 at 3.8 nM; inhibition of PCSK9-Flag binding to His-tagged LDL receptor (competitor LDLR), relative to maximum signal without matrilin-2
[13] = biological target: PCSK9-FLAG (Pan troglodytes (Chimpanzee); Homo sapiens (Human)) (UniProt A8T644); test: AlphaScreen competition, matrilin-2 at 0.14 nM; inhibition of PCSK9-Flag binding to His-tagged LDL receptor (competitor LDLR), relative to maximum signal without matrilin-2
[14] = biological target: PCSK9-FLAG (Pan troglodytes (Chimpanzee); Homo sapiens (Human)) (UniProt A8T644); test: AlphaScreen competition, matrilin-2 at 0.42 nM; inhibition of PCSK9-Flag binding to His-tagged LDL receptor (competitor LDLR), relative to maximum signal without matrilin-2

UniProt A8T644, sequence (A8T644 31-152 limits assumed, chain 1 of 2): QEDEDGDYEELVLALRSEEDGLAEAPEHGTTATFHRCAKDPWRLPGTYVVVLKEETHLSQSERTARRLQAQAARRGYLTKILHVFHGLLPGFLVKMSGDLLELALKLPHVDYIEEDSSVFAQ
UniProt A8T644, sequence (A8T644 other isoform, or with tags, fused parts or gaps limits assumed, chain 2 of 2): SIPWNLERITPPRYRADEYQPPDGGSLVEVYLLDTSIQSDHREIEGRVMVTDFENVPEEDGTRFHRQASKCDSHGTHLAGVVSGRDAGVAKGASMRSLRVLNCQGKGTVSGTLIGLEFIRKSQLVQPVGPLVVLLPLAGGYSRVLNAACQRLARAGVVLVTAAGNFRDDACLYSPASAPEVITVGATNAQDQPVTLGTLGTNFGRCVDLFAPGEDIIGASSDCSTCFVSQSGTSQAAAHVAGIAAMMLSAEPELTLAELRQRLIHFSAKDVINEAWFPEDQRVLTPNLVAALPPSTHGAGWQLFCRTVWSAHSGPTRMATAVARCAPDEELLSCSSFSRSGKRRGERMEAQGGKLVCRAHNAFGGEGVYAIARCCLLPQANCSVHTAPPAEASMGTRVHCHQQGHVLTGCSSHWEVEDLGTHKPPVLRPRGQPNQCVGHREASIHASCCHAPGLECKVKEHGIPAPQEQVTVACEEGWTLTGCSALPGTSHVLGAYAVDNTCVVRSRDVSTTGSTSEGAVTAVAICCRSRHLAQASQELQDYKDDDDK

Alphascreen Signal (counts per second) [1]: 10100 | Alphascreen Signal (counts per second) [2]: 12900 | Alphascreen Signal (counts per second) [3]: 18800 | Alphascreen Signal (counts per second) [4]: 20200 | Alphascreen Signal (counts per second) [5]: 54000 | Alphascreen Signal (counts per second) [6]: 14100 | Alphascreen Signal (counts per second) [7]: 213000 | Alphascreen Signal (counts per second) [8]: 222000 | % inhibition [9]: 36% | % inhibition [10]: 50.7% | % inhibition [11]: 5.2% | % inhibition [12]: 17.1% | % inhibition [13]: 0.1% | % inhibition [14]: -0.4%
B1: His-tagged recombinant human matrilin-2 (mature, short isoform, Arg 24-Arg 937; R&D Systems Catalog Number 3044-MN) (protein, not shown: small tags and cut ends)
chain: RERSRGRSISRGRHARTHPQTALLESSCENKRADLVFIIDSSRSVNTHDYAKVKEFIVDILQFLDIGPDVTRVGLLQYGSTVKNEFSLKTFKRKSEVERAVKRMRHLSTGTMTGLAIQYALNIAFSEAEGARPLRENVPRVIMIVTDGRPQDSVAEVAAKARDTGILIFAIGVGQVDFNTLKSIGSEPHEDHVFLVANFSQIETLTSVFQKKLCTAHMCSTLEHNCAHFCINIPGSYVCRCKQGYILNSDQTTCRIQDLCAMEDHNCEQLCVNVPGSFVCQCYSGYALAEDGKRCVAVDYCASENHGCEHECVNADGSYLCQCHEGFALNPDKKTCTKIDYCASSNHGCQHECVNTDDSYSCHCLKGFTLNPDKKTCRRINYCALNKPGCEHECVNMEESYYCRCHRGYTLDPNGKTCSRVDHCAQQDHGCEQLCLNTEDSFVCQCSEGFLINEDLKTCSRVDYCLLSDHGCEYSCVNMDRSFACQCPEGHVLRSDGKTCAKLDSCALGDHGCEHSCVSSEDSFVCQCFEGYILREDGKTCRRKDVCQAIDHGCEHICVNSDDSYTCECLEGFRLAEDGKRCRRKDVCKSTHHGCEHICVNNGNSYICKCSEGFVLAEDGRRCKKCTEGPIDLVFVIDGSKSLGEENFEVVKQFVTGIIDSLTISPKAARVGLLQYSTQVHTEFTLRNFNSAKDMKKAVAHMKYMGKGSMTGLALKHMFERSFTQGEGARPLSTRVPRAAIVFTDGRAQDDVSEWASKAKANGITMYAVGVGKAIEEELQEIASEPTNKHLFYAEDFSTMDEISEKLKKGICEALEDSDGRQDSPAGELPKTVQQPTVQHRYLFEEDNLLRSTQKLSHSTKPSGSPLEEKHDQCKCENLIMFQNLANEEVRKLTQRLEEMTQRMEALENRLRYR
